{"source": "paper PMC5738438", "about": "(2017)", "key": {"H2A/H2B dimer": {"biological_target": "H2A/H2B dimer (Xenopus, UniProt P06897 2-123; P02281 1-126)"}, "H3/H4": {"biological_target": "H3/H4 (Xenopus, UniProt P84233 21-136; P62799 17-103)"}}}
{"binder": "DYSWAEEEDE", "note": "[Npm tail peptide (residues 122–131)]", "values": [{"measurement": "Kd", "setting": "H2A/H2B dimer", "value": 9360, "unit": "nM"}]}
{"binder": "Npm tail domain (residues 119–195) (domain or fragment) MEEDYSWAEEEDEGEEEEEEEEDPESPPKAVKRPAATKKAGQAKKKKLDKEDESSEEDSPTKKGKGAGRGRKPAAKK", "values": [{"measurement": "Kd", "setting": "H3/H4", "value": 1110, "unit": "nM"}, {"measurement": "Kd", "setting": "H2A/H2B dimer", "value": 171, "unit": "nM"}]}
